From patent US20040265965A1 (ELAN PHARMACEUTICALS, published 2004) come the findings set out here.

Non-standard residues stand in square brackets, D forms with d. No end group written: not given here. Sta = CC(C)C[C@H](N)[C@@H](O)CC(=O)O

Experiment [1] deals with T1, Δ2,3-452H soluble BACE (S174I, N223A, histidine tag), baculovirus/Sf9 (human, UniProt P56817 22-452).
T1 construct: not shown: histidine tag
The experiment is described as follows: affinity chromatography on the immobilised inhibitor peptide.

For experiment [2], the target named is T2, Δ2,3-452H,NINL soluble BACE (S174I, N223A, R42L43P44R45 changed to NINL, histidine tag), baculovirus/Sf9 (human, UniProt P56817 46-452).
T2 construct: not shown: histidine tag
T2 sequence (P56817 other isoform, or with tags, fused parts or gaps S174I N223A S174I N223A): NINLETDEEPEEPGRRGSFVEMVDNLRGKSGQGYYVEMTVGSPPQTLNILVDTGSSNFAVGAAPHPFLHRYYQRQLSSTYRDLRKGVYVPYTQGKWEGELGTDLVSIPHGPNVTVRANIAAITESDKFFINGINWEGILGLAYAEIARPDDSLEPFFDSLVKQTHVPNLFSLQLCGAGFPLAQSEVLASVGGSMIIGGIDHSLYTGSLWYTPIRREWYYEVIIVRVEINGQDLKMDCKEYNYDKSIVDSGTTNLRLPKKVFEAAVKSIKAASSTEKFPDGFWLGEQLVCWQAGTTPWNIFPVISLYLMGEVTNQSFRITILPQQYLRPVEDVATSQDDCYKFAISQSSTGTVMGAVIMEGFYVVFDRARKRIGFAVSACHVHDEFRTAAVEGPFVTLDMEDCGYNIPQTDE
Described as above.

T1 sequence (P56817 22-452 S174I/N223A): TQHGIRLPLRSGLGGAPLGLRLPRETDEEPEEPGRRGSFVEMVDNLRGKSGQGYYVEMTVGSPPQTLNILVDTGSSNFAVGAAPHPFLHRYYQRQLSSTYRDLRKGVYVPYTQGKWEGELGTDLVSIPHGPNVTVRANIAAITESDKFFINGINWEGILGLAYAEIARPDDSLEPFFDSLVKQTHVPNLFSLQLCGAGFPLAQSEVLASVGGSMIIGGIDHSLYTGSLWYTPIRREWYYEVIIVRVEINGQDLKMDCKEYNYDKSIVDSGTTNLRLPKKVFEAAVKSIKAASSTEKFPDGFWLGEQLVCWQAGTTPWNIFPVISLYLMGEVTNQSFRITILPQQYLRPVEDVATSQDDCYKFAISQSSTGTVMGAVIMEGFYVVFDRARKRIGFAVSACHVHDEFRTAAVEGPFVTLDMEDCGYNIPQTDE

For KTEEISEVN[Sta]VAEF (also called P10-P4′staV; P10-4′staD→V) [P10-P4′staD→V inhibitor peptide, KTEEISEVN[sta]VAEF], the binding result in experiment [1] and in experiment [2] was “binds” throughout.
